Test results taken from patent US10788499B2, “Methods for assaying palmitoyl protein thioesterase 1 and tripeptidyl peptidase activity in dried blood spots for detection of neuronal ceroid lipofuscinoses in newborns” (University of Washington, priority 2015, dated 2020).
Ends that are not written are not given here. * marks the point of attachment. Lauroyl = CCCCCCCCCCCC(=O)*

Experiments:
[1] = molecular target: T1, tripeptidyl peptidase 1 (TPP1) (Homo sapiens, UniProt O14773); test: TPP1 assay in dried blood spots with synthetic substrate, tandem mass spectrometry (SRM); assay type: biochemical
T1 construct: from tissue; host or cells: dried blood spots from human newborns, NCL II patients and a control
T1 sequence (O14773 196-563): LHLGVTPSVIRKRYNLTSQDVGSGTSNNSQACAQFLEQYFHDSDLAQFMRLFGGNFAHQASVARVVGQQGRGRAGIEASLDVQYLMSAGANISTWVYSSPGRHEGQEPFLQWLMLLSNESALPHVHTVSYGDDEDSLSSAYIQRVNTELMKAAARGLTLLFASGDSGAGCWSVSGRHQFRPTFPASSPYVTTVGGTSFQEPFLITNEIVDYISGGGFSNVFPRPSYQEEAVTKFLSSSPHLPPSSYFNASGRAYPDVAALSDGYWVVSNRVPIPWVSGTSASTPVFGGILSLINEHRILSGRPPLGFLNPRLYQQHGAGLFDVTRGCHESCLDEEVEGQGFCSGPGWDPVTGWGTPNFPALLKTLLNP
Method: (§1) Electrospray-MS/MS was carried out on a Waters Quattro Micro tandem quadrupole (quadrupole-hexapole-quadrupole) instrument using a positive ionization mode and selected reaction monitoring (SRM). Samples (10 μL) were flow-injected with an autosampler in an acetonitrile/water (v/v=80:20) solution containing 0.1% formic at a flow rate of 0.2 mL/min. The mass spectrometer settings were as follows: Capillary voltage 3.5 kV; cone 35 V; extractor 2.0 V; RF lens, 0.2 V; source temperature, 120° C.; desolvation temperature, 250° C.; cone gas flow, 50 L/h; desolvation gas flow, 500 L/h; LM 1 resolution, 14.8; HM 1 resolution, 14.8; ion energy 1, 0.2 eV; entrance, 2 V; collision, 25 eV; exit, 15 V; LM 2 resolution, 14.8; HM 2 resolution, 14.8; ion energy 2, 1.0 eV; multiplier, 650 V; gas cell Pirani pressure, 2.21×10^−3 mbar; dwell time 100 ms. Shorter dwell times (10 ms) were also investigated on the Quattro Micro instrument but led to increased coefficients of variation (CV) for intra-assay measurements from 1.5% at 100 ms to 4% at 10 ms, all for triplicate injections. The precursor ion-fragment ion SRM transitions for the PPT1 assays were monitored at m/z 762.5→m/z 423.5 and m/z 678.4→m/z 423.4 for PPT1-P and PPTI-IS, respectively, corresponding to the formation of the abundant y4 fragment ion of the peptide (FIGS. 1A and 1B). The SRM transitions for the TPP1 assays were monitored at m/z 308.3→m/z 208.3 and m/z 317.3→m/z 209.3 for TPP1-P and TPP1-IS, respectively, as shown in FIG. 2.
TPP1 substrate solution was prepared by dissolving 5 mg TPP1 substrate (FIG. 5 (right)) in 1.5 mL of dimethyl sulfoxide (DMSO). 1 mg TPP1 IS was dissolved in 1.5 mL of assay buffer, which contained 0.15 M NaCl and 0.1 M sodium acetate buffer at pH 4.0. This concentrated TPP1 IS solution was further diluted with stock assay buffer to make a 300 μM IS solution. The assay cocktail was a 100 μL mixture composed of 7.2 μL of substrate solution (40 nmol), 5 μL of 300 μM IS solution (1.5 nmol) and additional 87.8 μL of stock assay buffer. […]

[2] = Non-enzymatic hydrolysis of substrate in blank (absence of DBS), pH dependence; assay type: physicochemical
Excerpt: The PPT1 activity is known to have an optimum activity at pH 7 when acting on the natural substrate. […] The production of TPP-P by non-enzymatic hydrolysis in the blank sample at pH 4 was ca. 15 fold lower than that due to TPP1 activity in the DBS.

[3] = Incubation of synthetic PPT1-P in assay buffer with DBS (digestion by proteolytic enzymes in rehydrated DBS); assay type: in vitro ADME, human; details: 18 h
Method: The leveling-off effect can be in part due to enzymatic digestion of PPT1-P by proteolytic enzymes in rehydrated DBS. This was checked by incubating synthetic PPT1-P in the assay buffer with DBS for 18 h. […] Since PPT1-P and PPT1-IS are similar hydrophobic peptides, it is safe to presume that their depletion will occur at similar rates and will not affect their molar ratio. […] Based on these measurements, the incubation time for both PPT1 and TPP1 was set at 10 h. The enzyme kinetics with respect to the synthetic substrates was established through Michaelis-Menten plots which were fitted to obtain the Km and Vmax values (FIGS. 12A and 12B). Each Michaelis-Menten curve was obtained from triplicate activity measurements over an appropriate substrate concentration range (0-500 μM and 0-300 μM). […] The measured Km were used to adjust the initial substrate concentrations in the assays to ≥2 Km value, e.g. 0.46 and 0.40 mM for PPT1-S and TPP1-S, respectively.

[4] = molecular target: T2, palmitoyl protein thioesterase 1 (PPT1) (Homo sapiens, UniProt P50897); test: PPT1 assay in dried blood spots with synthetic substrate, tandem mass spectrometry (SRM); assay type: biochemical
T2 construct: from tissue; host or cells: dried blood spots from human newborns, NCL patients and a healthy adult control
T2 sequence (P50897 28-306): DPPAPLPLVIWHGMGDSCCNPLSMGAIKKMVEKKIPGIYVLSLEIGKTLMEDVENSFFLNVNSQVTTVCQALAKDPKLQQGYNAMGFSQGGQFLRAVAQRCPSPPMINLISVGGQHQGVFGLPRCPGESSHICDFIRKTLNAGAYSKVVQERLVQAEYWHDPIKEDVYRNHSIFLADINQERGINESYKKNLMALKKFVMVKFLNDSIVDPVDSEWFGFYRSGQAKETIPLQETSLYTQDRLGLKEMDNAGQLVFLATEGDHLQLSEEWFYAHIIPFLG
Method: as §1
A 3-mm punch of a dried blood spot was placed in a 1.5 mL polypropylene tube (Eppendorf) and 100 μL of 100 mM phosphate buffer solution (pH 7) containing 46 nmol of PPT1 substrate (PPT1-S, FIG. 5 (left)) and 2.6 nmol of PPT1 internal standard (PPT1-IS) and 0.08% v/v Triton X-100 (ACROS, Cat #21568) was added. The solution was then vortexed briefly and incubated for 10 h at 37° C. in a thermostated air shaker at 250 rpm. After the incubation period was over, the sample was placed in an ice bath and the reaction was quenched by addition of 300 μL of ethyl acetate and 100 μL of deionized water. […]

[5] = molecular target: T3, palmitoyl protein thioesterase (Homo sapiens, UniProt P50897); test: Simplex PPT1 assay (C12 thioester substrate) carried out with recombinant palmitoyl protein thioesterase, LC-MS/MS; assay type: biochemical; details: 2 μL recombinant PPT1 enzyme, 0.6 mM C12 thioester substrate, pH 6.75
T3 sequence (P50897 28-306): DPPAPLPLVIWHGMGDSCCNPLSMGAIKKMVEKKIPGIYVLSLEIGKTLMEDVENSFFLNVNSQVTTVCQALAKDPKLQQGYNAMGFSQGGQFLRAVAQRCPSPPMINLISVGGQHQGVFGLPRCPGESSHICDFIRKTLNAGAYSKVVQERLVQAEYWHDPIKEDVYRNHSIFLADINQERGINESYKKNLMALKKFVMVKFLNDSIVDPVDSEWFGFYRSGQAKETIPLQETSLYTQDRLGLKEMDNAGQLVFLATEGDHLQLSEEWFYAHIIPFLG
Method: Assay cocktail: a substrate and internal standard stock solution (methanol solution) were pipetted into a vial and dried using a speed vacuum. After all the solvent is removed, the residue was diluted with assay buffer (0.1M phosphate citrate buffer, 0.08% Triton X-100 (or sodium taurocholate), 0.1 mM EDTA (or no EDTA) at pH=6.75) to a final concentration of 0.6 mM (substrate), 30 μM (Internal Standard), and mixed by vortexing.
[…] For the blank control, a 3.2 mm filter paper punch was placed in a vial. 30 μL of assay cocktail was added to each vial, which either includes dried blood spot (or filter paper blanks). The Eppendorf vial is shaken at 37° C. for 16 hrs using an orbital shaker (250 rpm)/incubator.
After the incubation, the assay is quenched with 100 μL of methanol/ethyl acetate=50/50 mixture, and then 400 μL of ethyl acetate, then 200 μL of 0.5M NaCl(aq), pipette up and down 10× times to mix well.
The sample tubes were then centrifuged at 3000 rpm for 5 minutes. 200 μL of upper layer solution (organic layer) was removed, and transferred to a new shallow plate. The solvent was evaporated under nitrogen gas flow, the remaining solid was reconstituted with 100 μL LC-MS solvent (55/45 water/acetonitrile with 0.1% formic acid). The solution was mixed up and down about 10 times with a pipettor.
The plate was placed on the autosampler of the LC-MS/MS for isocratic LC-MS/MS. […]

[6] = TPP1 in DBS, Michaelis-Menten fit, triplicate activity measurements
[7] = PPT1 in DBS, Michaelis-Menten fit, triplicate activity measurements

With `C[C@H](N)C(=O)N[C@@H](C)C(=O)N[C@@H](Cc1ccccc1)C(=O)NCc1ccc(C(=O)NCCCNC(=O)OC(C)(C)C)cc1` [TPP1 substrate] the “product produced per DBS” value ([1]; 10 h incubation) was 1.7 nmol/DBS, the Km [1, 6] was 53.3 µM and the Vmax [1, 6] was 46.0 µmol/L/h. For the same molecule, the “production of TPP-P by non-enzymatic hydrolysis in the blank sample, fold lower than that due to TPP1 activity in the DBS” value ([2]; pH 4) was “ca. 15 fold”.

In the case of Ac-ALLPFGC [PPT1-P], the “decrease of PPT1-P compared to a control sample” value [3] is reported as 25-27%.

For “N-Ac-Ala-Leu-Leu-Pro-Phe-Gly-Cys-S—COC11H23 (Ac-ALLPFGC(Lauroyl); also: S-acyl: name COC11H23, mods S-palmitoyl) [PPT1 substrate, cysteine terminated heptapeptide carrying an S-palmitoyl group]”, the “product produced on average per one DBS” value ([4]; 10 h incubation) was 4.7 nmol, the Km [4, 7] was 230 µM and the Vmax [4, 7] was 217.0 µmol/L/h. For the same molecule, the “non-enzymatic hydrolysis of the thioester bond” value ([2]; between pH 7 and 8) was “substantially increased”.

B1: recombinant PPT1 enzyme: recombinant palmitoyl protein thioesterase (protein, UniProt P50897 28-306, looked up)
Palmitoyl-protein …: DPPAPLPLVIWHGMGDSCCNPLSMGAIKKMVEKKIPGIYVLSLEIGKTLMEDVENSFFLNVNSQVTTVCQALAKDPKLQQGYNAMGFSQGGQFLRAVAQRCPSPPMINLISVGGQHQGVFGLPRCPGESSHICDFIRKTLNAGAYSKVVQERLVQAEYWHDPIKEDVYRNHSIFLADINQERGINESYKKNLMALKKFVMVKFLNDSIVDPVDSEWFGFYRSGQAKETIPLQETSLYTQDRLGLKEMDNAGQLVFLATEGDHLQLSEEWFYAHIIPFLG
With B1 the activity [5] was 40.4682 μmol/Lh.
